B1: HC3B238 (CD3W246-HL-scFv-Fc x MHGB738-Fab-Fc) (bispecific antibody, human IgG1, kappa, L234A L235A)
scFv: EVQLVESGGGLVKPGGSLRLSCAASGFTFSRYNMNWVRQAPGKGLEWVSSISTSSNYIYYADSVKGRFTFSRDNAKNSLDLQMSGLRAEDTAIYYCTRGWGPFDYWGQGTLVTVSSGGSEGKSSGSGSESKSTGGSDIQMTQSPSSLSASVGDRVTITCRARQSIGTAIHWYQQKPGKAPKLLIKYASESISGVPSRFSGSGSGTDFTLTISSVQPEDFATYYCQQSGSWPYTFGQGTKLEIKEPKSSDKTHTCPPCPAPEAAGGPSVFLFPPKPKDTLMISRTPEVTCVVVSVSHEDPEVKFNWYVDGVEVHNAKTKPREEQYNSTYRVVSVLTVLHQDWLNGKEYKCKVSNKALPAPIEKTISKAKGQPREPQVYVYPPSREEMTKNQVSLTCLVKGFYPSDIAVEWESNGQPENNYKTTPPVLDSDGSFALVSKLTVDKSRWQQGNVFSCSVMHEALHNHYTQKSLSLSPG
heavy: QVQLQQSGPGLVKPSQTLSLTCAISGDSVSSNRAAWNWIRQSPSRGLEWLGRTYYRSKWYNDYAVSVKSRITINPDTSKNQISLQLNSVTPEDTAVYYCARVRPGIPFDYWGQGTPVTVSSASTKGPSVFPLAPSSKSTSGGTAALGCLVKDYFPEPVTVSWNSGALTSGVHTFPAVLQSSGLYSLSSVVTVPSSSLGTQTYICNVNHKPSNTKVDKKVEPKSCDKTHTCPPCPAPEAAGGPSVFLFPPKPKDTLMISRTPEVTCVVVSVSHEDPEVKFNWYVDGVEVHNAKTKPREEQYNSTYRVVSVLTVLHQDWLNGKEYKCKVSNKALPAPIEKTISKAKGQPREPQVYVLPPSREEMTKNQVSLLCLVKGFYPSDIAVEWESNGQPENNYLTWPPVLDSDGSFFLYSKLTVDKSRWQQGNVFSCSVMHEALHNHYTQKSLSLSPG
light: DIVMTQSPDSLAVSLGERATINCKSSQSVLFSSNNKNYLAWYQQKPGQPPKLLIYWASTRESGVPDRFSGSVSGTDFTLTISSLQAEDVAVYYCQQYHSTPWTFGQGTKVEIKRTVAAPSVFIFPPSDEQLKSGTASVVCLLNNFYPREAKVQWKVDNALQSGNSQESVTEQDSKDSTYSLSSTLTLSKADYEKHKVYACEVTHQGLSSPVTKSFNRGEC
B2: HC3B237 (CD3W246-LH-scFv-Fc x MHGB738-Fab-Fc) (bispecific antibody, human IgG1, kappa, L234A L235A)
scFv: DIQMTQSPSSLSASVGDRVTITCRARQSIGTAIHWYQQKPGKAPKLLIKYASESISGVPSRFSGSGSGTDFTLTISSVQPEDFATYYCQQSGSWPYTFGQGTKLEIKGGSEGKSSGSGSESKSTGGSEVQLVESGGGLVKPGGSLRLSCAASGFTFSRYNMNWVRQAPGKGLEWVSSISTSSNYIYYADSVKGRFTFSRDNAKNSLDLQMSGLRAEDTAIYYCTRGWGPFDYWGQGTLVTVSSEPKSSDKTHTCPPCPAPEAAGGPSVFLFPPKPKDTLMISRTPEVTCVVVSVSHEDPEVKFNWYVDGVEVHNAKTKPREEQYNSTYRVVSVLTVLHQDWLNGKEYKCKVSNKALPAPIEKTISKAKGQPREPQVYVYPPSREEMTKNQVSLTCLVKGFYPSDIAVEWESNGQPENNYKTTPPVLDSDGSFALVSKLTVDKSRWQQGNVFSCSVMHEALHNHYTQKSLSLSPGK
heavy: B1 heavy
light: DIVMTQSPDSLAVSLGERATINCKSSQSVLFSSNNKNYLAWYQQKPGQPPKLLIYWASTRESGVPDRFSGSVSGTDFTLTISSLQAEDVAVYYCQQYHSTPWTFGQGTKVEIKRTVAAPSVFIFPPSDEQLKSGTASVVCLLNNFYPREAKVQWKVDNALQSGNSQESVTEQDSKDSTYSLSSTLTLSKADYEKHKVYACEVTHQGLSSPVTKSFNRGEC
B3: HC3B236 (CD3B450-LH-scFv-Fc x MHGB738-Fab-Fc) (bispecific antibody, human IgG1, kappa, L234A L235A)
scFv: QSALTQPASVSGSPGQSITISCTGTSSNIGTYKFVSWYQQHPGKAPKVMIYEVSKRPSGVSNRFSGSKSGNTASLTISGLQAEDEADYYCVSYAGSGTLLFGGGTKLTVLGGSEGKSSGSGSESKSTGGSQVQLQQSGPGLVKPSQTLSLTCAISGDSVFNNNAAWSWIRQSPSRGLEWLGRTYYRSKWLYDYAVSVKSRITINPDTSKNQFSLQLNSVTPEDTAVYYCARGYSSSFDYWGQGTLVTVSSEPKSSDKTHTCPPCPAPEAAGGPSVFLFPPKPKDTLMISRTPEVTCVVVSVSHEDPEVKFNWYVDGVEVHNAKTKPREEQYNSTYRVVSVLTVLHQDWLNGKEYKCKVSNKALPAPIEKTISKAKGQPREPQVYVYPPSREEMTKNQVSLTCLVKGFYPSDIAVEWESNGQPENNYKTTPPVLDSDGSFALVSKLTVDKSRWQQGNVFSCSVMHEALHNHYTQKSLSLSPG
heavy: B1 heavy
light: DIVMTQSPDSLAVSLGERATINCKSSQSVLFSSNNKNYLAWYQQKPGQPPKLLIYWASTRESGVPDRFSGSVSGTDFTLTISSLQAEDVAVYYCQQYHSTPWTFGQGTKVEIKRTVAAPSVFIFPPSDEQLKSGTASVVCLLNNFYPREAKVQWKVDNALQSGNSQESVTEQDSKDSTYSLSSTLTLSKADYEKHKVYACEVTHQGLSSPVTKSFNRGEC
B4: HC3B235 (CD3B219-LH-scFv-Fc x MHGB738-Fab-Fc) (bispecific antibody, human IgG1, kappa, L234A L235A)
scFv: QTVVTQEPSLTVSPGGTVTLTCRSSTGAVTTSNYANWVQQKPGQAPRGLIGGTNKRAPGTPARFSGSLLGGKAALTLSGVQPEDEAEYYCALWYSNLWVFGGGTKLTVLGGSEGKSSGSGSESKSTGGSEVQLVESGGGLVQPGGSLRLSCAASGFTFNTYAMNWVRQAPGKGLEWVARIRSKYNNYATYYAASVKGRFTISRDDSKNSLYLQMNSLKTEDTAVYYCVRHGNFGNSYVSWFAYWGQGTLVTVSSEPKSSDKTHTCPPCPAPEAAGGPSVFLFPPKPKDTLMISRTPEVTCVVVSVSHEDPEVKFNWYVDGVEVHNAKTKPREEQYNSTYRVVSVLTVLHQDWLNGKEYKCKVSNKALPAPIEKTISKAKGQPREPQVYVYPPSREEMTKNQVSLTCLVKGFYPSDIAVEWESNGQPENNYKTTPPVLDSDGSFALVSKLTVDKSRWQQGNVFSCSVMHEALHNHYTQKSLSLSPG
heavy: B1 heavy
light: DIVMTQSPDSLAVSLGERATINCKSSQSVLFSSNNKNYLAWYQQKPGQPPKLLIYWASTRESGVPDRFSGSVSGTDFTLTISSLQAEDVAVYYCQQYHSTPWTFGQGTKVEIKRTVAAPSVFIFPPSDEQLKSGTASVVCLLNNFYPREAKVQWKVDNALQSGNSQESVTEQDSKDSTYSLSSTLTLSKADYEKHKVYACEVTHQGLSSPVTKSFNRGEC
B5: HC3B125 (CD3B376-Fab-Fc x MHGB732-LH-scFv-Fc, no C-terminal Lys) (bispecific antibody, human IgG1, lambda, L234A L235A)
heavy: QVQLQQSGPRLVRPSQTLSLTCAISGDSVFNNNAAWSWIRQSPSRGLEWLGRTYYRSKWLYDYAVSVKSRITVNPDTSRNQFTLQLNSVTPEDTALYYCARGYSSSFDYWGQGTLVTVSSASTKGPSVFPLAPSSKSTSGGTAALGCLVKDYFPEPVTVSWNSGALTSGVHTFPAVLQSSGLYSLSSVVTVPSSSLGTQTYICNVNHKPSNTKVDKKVEPKSCDKTHTCPPCPAPEAAGGPSVFLFPPKPKDTLMISRTPEVTCVVVSVSHEDPEVKFNWYVDGVEVHNAKTKPREEQYNSTYRVVSVLTVLHQDWLNGKEYKCKVSNKALPAPIEKTISKAKGQPREPQVYVYPPSREEMTKNQVSLTCLVKGFYPSDIAVEWESNGQPENNYKTTPPVLDSDGSFALVSKLTVDKSRWQQGNVFSCSVMHEALHNHYTQKSLSLSPG
light: QSALTQPASVSGSPGQSITISCTGTSSNIGTYKFVSWYQQHPDKAPKVLLYEVSKRPSGVSSRFSGSKSGNTASLTISGLQAEDQADYHCVSYAGSGTLLFGGGTKLTVLGQPKAAPSVTLFPPSSEELQANKATLVCLISDFYPGAVTVAWKADSSPVKAGVETTTPSKQSNNKYAASSYLSLTPEQWKSHRSYSCQVTHEGSTVEKTVAPTECS
scFv: DIVMTQSPDSLAVSLGERATINCKSSQSVLHSSNNKNYLTWFQQKPGQPPKLLIYWASTRESGVPDRFSGSGSGTDFTLTISSLQAEDVAVYYCHQYYSTPPTFGQGTKVEIKGGSEGKSSGSGSESKSTGGSQVQLQQSGPGLVKPSQTLSLTCAISGDSVSSNSAAWNWIRQSPSRGLEWLGRTYYRSKWYNDYAVSVKSRITINPDTSKNQISLQLNSVTPEDTAVYYCAGDRRYGIVGLPFAYWGQGTLVTVSSEPKSSDKTHTCPPCPAPEAAGGPSVFLFPPKPKDTLMISRTPEVTCVVVSVSHEDPEVKFNWYVDGVEVHNAKTKPREEQYNSTYRVVSVLTVLHQDWLNGKEYKCKVSNKALPAPIEKTISKAKGQPREPQVYVLPPSREEMTKNQVSLLCLVKGFYPSDIAVEWESNGQPENNYLTWPPVLDSDGSFFLYSKLTVDKSRWQQGNVFSCSVMHEALHNHYTQKSLSLSPG
B6: HC3B232 (CD3W246-LH-scFv-Fc x MHGB732-Fab-Fc) (bispecific antibody, human IgG1, kappa, L234A L235A)
scFv: B2 scFv
heavy: QVQLQQSGPGLVKPSQTLSLTCAISGDSVSSNSAAWNWIRQSPSRGLEWLGRTYYRSKWYNDYAVSVKSRITINPDTSKNQISLQLNSVTPEDTAVYYCAGDRRYGIVGLPFAYWGQGTLVTVSSASTKGPSVFPLAPSSKSTSGGTAALGCLVKDYFPEPVTVSWNSGALTSGVHTFPAVLQSSGLYSLSSVVTVPSSSLGTQTYICNVNHKPSNTKVDKKVEPKSCDKTHTCPPCPAPEAAGGPSVFLFPPKPKDTLMISRTPEVTCVVVSVSHEDPEVKFNWYVDGVEVHNAKTKPREEQYNSTYRVVSVLTVLHQDWLNGKEYKCKVSNKALPAPIEKTISKAKGQPREPQVYVLPPSREEMTKNQVSLLCLVKGFYPSDIAVEWESNGQPENNYLTWPPVLDSDGSFFLYSKLTVDKSRWQQGNVFSCSVMHEALHNHYTQKSLSLSPG
light: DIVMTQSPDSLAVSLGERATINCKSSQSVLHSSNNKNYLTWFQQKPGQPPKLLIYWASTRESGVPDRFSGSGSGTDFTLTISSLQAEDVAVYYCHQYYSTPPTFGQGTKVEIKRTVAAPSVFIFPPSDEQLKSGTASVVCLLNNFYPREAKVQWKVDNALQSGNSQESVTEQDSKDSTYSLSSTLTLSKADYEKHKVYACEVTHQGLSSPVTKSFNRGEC
B7: HC3B230 (CD3B219-LH-scFv-Fc x MHGB732-Fab-Fc) (bispecific antibody, human IgG1, kappa, L234A L235A)
scFv: B4 scFv
heavy: B6 heavy
light: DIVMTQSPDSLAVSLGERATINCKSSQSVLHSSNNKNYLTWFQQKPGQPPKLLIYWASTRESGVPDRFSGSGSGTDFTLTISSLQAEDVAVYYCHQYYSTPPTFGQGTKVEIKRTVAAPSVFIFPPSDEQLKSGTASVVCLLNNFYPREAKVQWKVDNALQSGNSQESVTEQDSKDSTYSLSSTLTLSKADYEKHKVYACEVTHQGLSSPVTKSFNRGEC
B8: HC3B231 (CD3B450-LH-scFv-Fc x MHGB732-Fab-Fc) (bispecific antibody, human IgG1, kappa, L234A L235A)
scFv: B3 scFv
heavy: B6 heavy
light: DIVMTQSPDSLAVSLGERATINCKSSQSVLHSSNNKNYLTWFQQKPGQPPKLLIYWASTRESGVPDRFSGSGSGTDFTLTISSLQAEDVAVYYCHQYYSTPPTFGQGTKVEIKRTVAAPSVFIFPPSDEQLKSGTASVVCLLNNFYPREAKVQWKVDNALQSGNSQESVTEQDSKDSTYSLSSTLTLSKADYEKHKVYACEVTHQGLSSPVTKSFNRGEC

Target: HLA-G on NCI-H2009-b2m target cells (human, UniProt P17693 25-338)
Assay: cell-based or functional assay

| Binder | Cytotoxicity, EC50 (M); T cell-mediated cytotoxicity against NCI-H2009-b2m cells, 72 hr, E:T 3:1 |
| --- | --- |
| B1 | 1.73e-11 M |
| B2 | 1.33e-10 M |
| B3 | 4.54e-09 M |
| B4 | 8.37e-11 M |
| B5 | 5.65e-11 M |
| B6 | 6.77e-12 M |
| B7 | 9.92e-12 M |
| B8 | 1.26e-10 M |
